# Laboratory results taken from patent publication US20230295277A1.
# What was measured:
# Test in all cases: cell-based or functional assay
# [1] = target: full-length subtype B consensus gp160 expressed on HEK293 cells (vector pConBgp160-opt) (HIV-1 subtype B (consensus))
# [2] = target: CD19 on REH cells (human) (UniProt P15391)
# [3] = target: subtype C consensus gp160 protein expressed on HEK293 cells (vector pConCgp160-opt) (HIV-1 subtype C (consensus))
# Chain of UniProt P15391 (P15391 20-556): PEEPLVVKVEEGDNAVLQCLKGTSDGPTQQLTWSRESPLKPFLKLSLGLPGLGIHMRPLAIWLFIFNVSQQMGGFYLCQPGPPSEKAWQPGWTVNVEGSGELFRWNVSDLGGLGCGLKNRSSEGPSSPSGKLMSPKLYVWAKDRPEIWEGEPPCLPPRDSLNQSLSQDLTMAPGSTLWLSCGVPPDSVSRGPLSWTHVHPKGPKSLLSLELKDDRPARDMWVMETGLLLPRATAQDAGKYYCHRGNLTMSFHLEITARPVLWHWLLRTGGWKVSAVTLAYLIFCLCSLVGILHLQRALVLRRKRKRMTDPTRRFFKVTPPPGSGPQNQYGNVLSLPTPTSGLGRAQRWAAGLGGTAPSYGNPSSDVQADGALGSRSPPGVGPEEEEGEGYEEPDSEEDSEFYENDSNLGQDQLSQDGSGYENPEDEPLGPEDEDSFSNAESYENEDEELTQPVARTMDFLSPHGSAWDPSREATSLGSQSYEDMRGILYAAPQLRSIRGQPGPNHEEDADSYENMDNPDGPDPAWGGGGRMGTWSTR
substance,measurement,setting,value
DNP-conjugated antibody 2G12,adaptor concentration at which IFN-γ production of CAR-NK cells reached a plateau,[1],> 2 nM
same,"percentage of gp160+ cells killed by anti-DNP CAR-NK cells, flow cytometry, 8 h, E:T 25:1, adaptor 2 nM",[1],50%
same,"percentage of gp160+ cells killed by anti-DNP CAR-T cells, E/T 1:1, 48 h, adaptor 10 nM",[1],34%
same,"percentage of gp160+ cells killed by universal (anti-DNP) CAR-NK cells with DNP-conjugated 2G12, E:T 25:1",[1],50%
DNP-conjugated anti-CD19 antibody (clone FMC63),"percentage of REH cells killed by anti-DNP CAR-NK cells, flow cytometry, E:T 25:1, overnight, adaptor 50 nM",[2],59%
same,"percentage of REH cells remaining alive, flow cytometry, E:T 25:1, overnight, adaptor 50 nM",[2],41%
DNP-conjugated PG9 (antibody),"percentage of subtype C gp160+ cells killed by anti-DNP CAR-NK cells, 8 h, E:T 25:1, adaptor 2 nM",[3],30%
same,"percentage of gp160+ cells killed by anti-DNP CAR-NK cells, flow cytometry, 8 h, E:T 25:1, adaptor 2 nM",[1],50%
DNP-conjugated 10-1074 (antibody),percentage of gp160+ cells killed by universal CAR-NK cells,[3],29.8%
same,"percentage of subtype C gp160+ cells killed by anti-DNP CAR-NK cells, 8 h, E:T 25:1, adaptor 2 nM",[3],30%
same,"percentage of gp160+ cells killed by anti-DNP CAR-NK cells, flow cytometry, 8 h, E:T 25:1, adaptor 2 nM",[1],50%
same,"percentage of gp160+ cells killed by anti-DNP CAR-T cells, E/T 1:1, 48 h, adaptor 10 nM",[1],29%
same,percentage of gp160+ cells killed by universal CAR-NK cells,[1],53.1%
DNP-conjugated VRC01 (antibody),"percentage of subtype C gp160+ cells lysed by anti-DNP CAR-NK cells, 8 h, E:T 25:1, adaptor 2 nM",[3],20%
same,"percentage of gp160+ cells killed by anti-DNP CAR-NK cells, flow cytometry, 8 h, E:T 25:1, adaptor 2 nM",[1],28.5%
2G12-based anti-gp160 CAR (pFUW-2G12-CD28-CD3ζ) on NK-92MI cells (from UniProt P01732 138-182; P10747 153-220; P20963 52-164),"percentage of gp160+ cells killed by 2G12 CAR-NK cells, E:T 25:1",[1],60%
DNP-conjugated 3BNC117 (antibody),percentage of gp160+ cells killed by universal CAR-NK cells,[3],19.7%
same,"percentage of subtype C gp160+ cells lysed by anti-DNP CAR-NK cells, 8 h, E:T 25:1, adaptor 2 nM",[3],20%
same,"IFN-γ production by anti-DNP CAR-NK cells (ELISA), adaptor 2 nM, against the isotype control",[1],2 fold
same,"percentage of gp160+ cells killed by anti-DNP CAR-NK cells, flow cytometry, 8 h, E:T 25:1, adaptor 2 nM",[1],50%
same,percentage of gp160+ cells killed by universal CAR-NK cells,[1],45.5%
